From PMC2956116 (Structure (London, England : 1993), 2010)

Target: the molecule itself
Test: cryo-EM structure

B1: Staphylococcus aureus pyruvate carboxylase (enzyme, S. aureus, UniProt A0A0H3JRU9 1-1150, looked up)
chain: MKQIKKLLVANRGEIAIRIFRAAAELDISTVAIYSNEDKSSLHRYKADESYLVGSDLGPAESYLNIERIIDVAKQANVDAIHPGYGFLSENEQFARRCAEEGIKFIGPHLEHLDMFGDKVKARTTAIKADLPVIPGTDGPIKSYELAKEFAEEAGFPLMIKATSGGGGKGMRIVREESELEDAFHRAKSEAEKSFGNSEVYIERYIDNPKHIEVQVIGDEHGNIVHLFERDCSVQRRHQKVVEVAPSVGLSPTLRQRICDAAIQLMENIKYVNAGTVEFLVSGDEFFFIEVNPRVQVEHTITEMVTGIDIVKTQILVAAGADLFGEEINMPQQKDITTLGYAIQCRITTEDPLNDFMPDTGTIIAYRSSGGFGVRLDAGDGFQGAEISPYYDSLLVKLSTHAISFKQAEEKMVRSLREMRIRGVKTNIPFLINVMKNKKFTSGDYTTKFIEETPELFDIQPSLDRGTKTLEYIGNVTINGFPNVEKRPKPDYELASIPTVSSSKIASFSGTKQLLDEVGPKGVAEWVKKQDDVLLTDTTFRDAHQSLLATRVRTKDMINIASKTADVFKDGFSLEMWGGATFDVAYNFLKENPWERLERLRKAIPNVLFQMLLRASNAVGYKNYPDNVIHKFVQESAKAGIDVFRIFDSLNWVDQMKVANEAVQEAGKISEGTICYTGDILNPERSNIYTLEYYVKLAKELEREGFHILAIKDMAGLLKPKAAYELIGELKSAVDLPIHLHTHDTSGNGLLTYKQAIDAGVDIIDTAVASMSGLTSQPSANSLYYALNGFPRHLRTDIEGMESLSHYWSTVRTYYSDFESDIKSPNTEIYQHEMPGGQYSNLSQQAKSLGLGERFDEVKDMYRRVNFLFGDIVKVTPSSKVVGDMALYMVQNDLDEQSVITDGYKLDFPESVVSFFKGEIGQPVNGFNKDLQAVILKGQEALTARPGEYLEPVDFEKVRELLEEEQQGPVTEQDIISYVLYPKVYEQYIQTRNQYGNLSLLDTPTFFFGMRNGETVEIEIDKGKRLIIKLETISEPDENGNRTIYYAMNGQARRIYIKDENVHTNANVKPKADKSNPSHIGAQMPGSVTEVKVSVGETVKANQPLLITEAMKMETTIQAPFDGVIKQVTVNNGDTIATGDLLIEIEKATD
modifications: biotinylated Lys1144
For B1, the “stoichiometry N” value was 4.
